Each sequence was assayed against MERTK (UniProt Q12866) (assay: phosphorylation enrichment, bacterial display (enrichment ratio); higher = better substrate or ligand; peptides without Tyr show the background).
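For SH2 binding enrichment of the phosphorylated peptide, bacterial display in this document: peptide library displayed on the E. coli surface as eCPX fusions, selected cells deep-sequenced, score is each peptide's frequency after selection divided by its frequency in the input.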
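For phosphorylation enrichment, bacterial display in this document: 11-residue human phosphosite peptides and single-mutation variants displayed on the E. coli surface, counted by deep sequencing, each peptide's frequency after selection divided by its frequency in the unselected input library; frequency after pTyr selection over input frequency; kinase dosed for 20-30% of maximal phosphorylation in three min.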

Chain of MERTK (Q12866 whole entry, looked up, the tested form may be a part): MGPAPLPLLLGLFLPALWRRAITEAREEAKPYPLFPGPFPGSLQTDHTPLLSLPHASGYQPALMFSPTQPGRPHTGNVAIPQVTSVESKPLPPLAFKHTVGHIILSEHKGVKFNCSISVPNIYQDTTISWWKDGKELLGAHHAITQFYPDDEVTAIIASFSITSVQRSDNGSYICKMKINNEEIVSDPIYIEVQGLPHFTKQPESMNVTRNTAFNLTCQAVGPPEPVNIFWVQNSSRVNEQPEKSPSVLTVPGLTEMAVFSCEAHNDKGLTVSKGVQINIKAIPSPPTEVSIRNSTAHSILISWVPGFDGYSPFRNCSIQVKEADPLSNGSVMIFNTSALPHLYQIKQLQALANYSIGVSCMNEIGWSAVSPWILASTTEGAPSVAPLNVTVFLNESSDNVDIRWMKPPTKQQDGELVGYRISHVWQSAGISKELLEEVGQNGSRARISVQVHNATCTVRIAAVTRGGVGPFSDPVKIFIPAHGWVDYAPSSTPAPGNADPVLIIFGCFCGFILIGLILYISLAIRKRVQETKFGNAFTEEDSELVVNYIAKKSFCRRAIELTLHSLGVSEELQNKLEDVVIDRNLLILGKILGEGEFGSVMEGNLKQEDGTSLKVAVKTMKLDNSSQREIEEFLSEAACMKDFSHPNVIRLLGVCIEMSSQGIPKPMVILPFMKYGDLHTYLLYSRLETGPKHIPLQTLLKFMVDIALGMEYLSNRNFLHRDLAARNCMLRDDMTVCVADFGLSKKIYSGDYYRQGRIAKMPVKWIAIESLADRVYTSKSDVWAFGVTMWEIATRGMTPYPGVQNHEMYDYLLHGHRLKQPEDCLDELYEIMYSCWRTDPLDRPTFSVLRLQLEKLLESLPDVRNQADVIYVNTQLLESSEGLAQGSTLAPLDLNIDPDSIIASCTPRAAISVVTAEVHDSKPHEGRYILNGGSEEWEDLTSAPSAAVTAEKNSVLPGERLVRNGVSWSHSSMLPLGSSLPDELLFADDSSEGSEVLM

Sequence | phosphorylation enrichment
DYYDLYGGKKF [PTPN11_Y66_E69K] | 1.21
LGGAMYYLEAE [PKHD1_Y452] | 1.74
LLVVLCKFRCF [PSEN1_Y154_Y154C_YF] | 0.984
ISNATYKEIGL [FLT1_Y199] | 0.304
KLVDVYVNDAF [PGK1_Y161_G158V] | 0.425
VYSSDYFSFVL [USP24_Y2138] | 5.03
ACVARYIFKRL [LPCAT3_Y348_W344C] | 0.492
QYQEKYKQVEQ [HCN4_Y531] | 0.375
LEQQKYTVTID [IKBKB_Y199_V203I] | 0.602
RETSLYKACER [ASB2_Y162_P160S] | 0.719
KTTILYKLKLG [ARF1_Y35] | 0.376
MQMEEYRGWVE [BTNL2_Y91] | 0.423
GNHVSYFQSDG [CACNA1C_Y1757_YF] | 0.443
PDSVDYRKKGY [CTSK_Y121] | 0.823
SISFDYCRVPM [BST2_Y8_T4I_YF] | 0.547
VPLLEYYWDIF [CDAN1_Y712_R714W] | 1.54
KWTVDYLSQVG [TYW5_Y48] | 0.373

Sequence | phosphorylation enrichment
LARDMYDKEFF [MET_Y1230_YF] | 0.396
QFNMQYSSSAA [ERBB2IP_Y981_I979M_YF] | 0.492
QEGPEYWDQQT [HLA-A_Y83_E87Q] | 0.649
SEDSEYFKAFE [CASQ2_Y178_YF] | 0.557
FADIAYIFRHG [PAH_Y166_N167I_YF] | 0.458
CTTTHYNFMCN [TP53_Y234_I232T_YF] | 0.393
SNPAFYVLEGV [INPPL1_Y987_N982S_YF] | 0.517
IHFPPYTDWNQ [ALDH3B2_Y365_YF] | 0.431
GVRFIYTIDGS [DCX_Y105_YF] | 0.48
FSPCDYQPCLA [TNS1_Y798_Y796C_YF] | 0.49
MDNQEYKDAFT [BRDT_Y331_K336T_YF] | 0.402
NNRVFYGNSDR [RS1_Y177] | 0.315
ALTDNYMYLVI [HAGH_Y61] | 3.34
SVTCTYSPALH [TP53_Y126_N131H] | 0.413
EVKEAYMGSVL [ACAT1_Y90_N93S] | 0.463
QSPQLYKQLCI [DARS1_Y253_M256L] | 0.432

Each sequence was assayed against SHP2-C SH2 (assay: SH2 binding enrichment of the phosphorylated peptide, bacterial display (enrichment ratio); higher = better substrate or ligand; peptides without Tyr show the background).

Sequence | SH2 binding enrichment
DYYDLYGGKKF [PTPN11_Y66_E69K] | 0.581
LGGAMYYLEAE [PKHD1_Y452] | 0.657
LLVVLCKFRCF [PSEN1_Y154_Y154C_YF] | 1.84
ISNATYKEIGL [FLT1_Y199] | 0.587
KLVDVYVNDAF [PGK1_Y161_G158V] | 0.832
VYSSDYFSFVL [USP24_Y2138] | 0.62
ACVARYIFKRL [LPCAT3_Y348_W344C] | 0.859
QYQEKYKQVEQ [HCN4_Y531] | 0.971
LEQQKYTVTID [IKBKB_Y199_V203I] | 0.752
RETSLYKACER [ASB2_Y162_P160S] | 0.799
KTTILYKLKLG [ARF1_Y35] | 0.973
MQMEEYRGWVE [BTNL2_Y91] | 0.392
GNHVSYFQSDG [CACNA1C_Y1757_YF] | 0.706
PDSVDYRKKGY [CTSK_Y121] | 0.708
SISFDYCRVPM [BST2_Y8_T4I_YF] | 0.65
VPLLEYYWDIF [CDAN1_Y712_R714W] | 1.08
KWTVDYLSQVG [TYW5_Y48] | 0.766

Sequence | SH2 binding enrichment
LARDMYDKEFF [MET_Y1230_YF] | 0.643
QFNMQYSSSAA [ERBB2IP_Y981_I979M_YF] | 0.527
QEGPEYWDQQT [HLA-A_Y83_E87Q] | 0.612
SEDSEYFKAFE [CASQ2_Y178_YF] | 0.709
FADIAYIFRHG [PAH_Y166_N167I_YF] | 0.796
CTTTHYNFMCN [TP53_Y234_I232T_YF] | 1.79
SNPAFYVLEGV [INPPL1_Y987_N982S_YF] | 0.752
IHFPPYTDWNQ [ALDH3B2_Y365_YF] | 0.736
GVRFIYTIDGS [DCX_Y105_YF] | 0.933
FSPCDYQPCLA [TNS1_Y798_Y796C_YF] | 0.843
MDNQEYKDAFT [BRDT_Y331_K336T_YF] | 0.69
NNRVFYGNSDR [RS1_Y177] | 0.735
ALTDNYMYLVI [HAGH_Y61] | 0.544
SVTCTYSPALH [TP53_Y126_N131H] | 0.532
EVKEAYMGSVL [ACAT1_Y90_N93S] | 0.671
QSPQLYKQLCI [DARS1_Y253_M256L] | 0.625

The sequences below were run against c-Src SH2 in the same assay as above.

Sequence | SH2 binding enrichment
DYYDLYGGKKF [PTPN11_Y66_E69K] | 0.388
LGGAMYYLEAE [PKHD1_Y452] | 0.841
LLVVLCKFRCF [PSEN1_Y154_Y154C_YF] | 1.57
ISNATYKEIGL [FLT1_Y199] | 1.04
KLVDVYVNDAF [PGK1_Y161_G158V] | 0.764
VYSSDYFSFVL [USP24_Y2138] | 0.442
ACVARYIFKRL [LPCAT3_Y348_W344C] | 0.753
QYQEKYKQVEQ [HCN4_Y531] | 0.743
LEQQKYTVTID [IKBKB_Y199_V203I] | 0.486
RETSLYKACER [ASB2_Y162_P160S] | 0.857
KTTILYKLKLG [ARF1_Y35] | 0.865
MQMEEYRGWVE [BTNL2_Y91] | 0.391
GNHVSYFQSDG [CACNA1C_Y1757_YF] | 0.618
PDSVDYRKKGY [CTSK_Y121] | 0.686
SISFDYCRVPM [BST2_Y8_T4I_YF] | 0.39
VPLLEYYWDIF [CDAN1_Y712_R714W] | 1.12
KWTVDYLSQVG [TYW5_Y48] | 0.549

Sequence | SH2 binding enrichment
LARDMYDKEFF [MET_Y1230_YF] | 0.506
QFNMQYSSSAA [ERBB2IP_Y981_I979M_YF] | 0.643
QEGPEYWDQQT [HLA-A_Y83_E87Q] | 0.421
SEDSEYFKAFE [CASQ2_Y178_YF] | 0.544
FADIAYIFRHG [PAH_Y166_N167I_YF] | 0.659
CTTTHYNFMCN [TP53_Y234_I232T_YF] | 3.48
SNPAFYVLEGV [INPPL1_Y987_N982S_YF] | 0.714
IHFPPYTDWNQ [ALDH3B2_Y365_YF] | 0.821
GVRFIYTIDGS [DCX_Y105_YF] | 0.507
FSPCDYQPCLA [TNS1_Y798_Y796C_YF] | 0.837
MDNQEYKDAFT [BRDT_Y331_K336T_YF] | 0.617
NNRVFYGNSDR [RS1_Y177] | 0.505
ALTDNYMYLVI [HAGH_Y61] | 0.437
SVTCTYSPALH [TP53_Y126_N131H] | 0.402
EVKEAYMGSVL [ACAT1_Y90_N93S] | 0.452
QSPQLYKQLCI [DARS1_Y253_M256L] | 0.432

What follows are sequences tested against Grb2 SH2 (UniProt P62993) in the same assay as above.
Chain of Grb2 SH2 (P62993 whole entry, looked up): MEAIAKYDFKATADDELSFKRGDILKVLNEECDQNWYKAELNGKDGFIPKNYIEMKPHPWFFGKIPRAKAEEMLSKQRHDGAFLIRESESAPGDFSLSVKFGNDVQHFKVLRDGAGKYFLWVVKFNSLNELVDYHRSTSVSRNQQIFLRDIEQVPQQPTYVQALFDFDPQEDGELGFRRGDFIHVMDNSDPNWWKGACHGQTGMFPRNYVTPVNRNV

Sequence | SH2 binding enrichment
DYYDLYGGKKF [PTPN11_Y66_E69K] | 0.74
LGGAMYYLEAE [PKHD1_Y452] | 0.811
LLVVLCKFRCF [PSEN1_Y154_Y154C_YF] | 1.82
ISNATYKEIGL [FLT1_Y199] | 0.823
KLVDVYVNDAF [PGK1_Y161_G158V] | 1.44
VYSSDYFSFVL [USP24_Y2138] | 0.798
ACVARYIFKRL [LPCAT3_Y348_W344C] | 0.89
QYQEKYKQVEQ [HCN4_Y531] | 0.958
LEQQKYTVTID [IKBKB_Y199_V203I] | 0.826
RETSLYKACER [ASB2_Y162_P160S] | 1.14
KTTILYKLKLG [ARF1_Y35] | 1.33
MQMEEYRGWVE [BTNL2_Y91] | 0.946
GNHVSYFQSDG [CACNA1C_Y1757_YF] | 0.84
PDSVDYRKKGY [CTSK_Y121] | 1.14
SISFDYCRVPM [BST2_Y8_T4I_YF] | 0.726
VPLLEYYWDIF [CDAN1_Y712_R714W] | 1.54
KWTVDYLSQVG [TYW5_Y48] | 0.886

Sequence | SH2 binding enrichment
LARDMYDKEFF [MET_Y1230_YF] | 0.93
QFNMQYSSSAA [ERBB2IP_Y981_I979M_YF] | 0.694
QEGPEYWDQQT [HLA-A_Y83_E87Q] | 0.664
SEDSEYFKAFE [CASQ2_Y178_YF] | 0.868
FADIAYIFRHG [PAH_Y166_N167I_YF] | 0.756
CTTTHYNFMCN [TP53_Y234_I232T_YF] | 1.27
SNPAFYVLEGV [INPPL1_Y987_N982S_YF] | 0.919
IHFPPYTDWNQ [ALDH3B2_Y365_YF] | 0.979
GVRFIYTIDGS [DCX_Y105_YF] | 0.915
FSPCDYQPCLA [TNS1_Y798_Y796C_YF] | 0.883
MDNQEYKDAFT [BRDT_Y331_K336T_YF] | 0.685
NNRVFYGNSDR [RS1_Y177] | 0.852
ALTDNYMYLVI [HAGH_Y61] | 0.819
SVTCTYSPALH [TP53_Y126_N131H] | 0.617
EVKEAYMGSVL [ACAT1_Y90_N93S] | 0.883
QSPQLYKQLCI [DARS1_Y253_M256L] | 0.585

Reference: the supplement of paper PMC10065799, “High-throughput profiling of sequence recognition by tyrosine kinases and SH2 domains using bacterial peptide display” (eLife, 2023)
